Measurements taken from PMC4598629.

Experiments:
[1] = biological target: SOAR, purified wild-type protein (UniProt Q13586); assay: cross-linking; purified proteins dialysed against PBS, 0.5 mg/ml, disuccinimidyl suberate 0, 0.1 and 1 mM, 30 min, room temperature; SDS-PAGE, Coomassie blue; monomers to dimer
[2] = biological target: SOAR, purified wild-type protein (UniProt Q13586); assay: SEC; purified SOAR and SOAR-F394H, ~0.5 mg/ml, Superdex-200 16/60, 200 mM NaCl, 20 mM Mes-NaOH pH 6.5, 2.5 ml/min; calibrated with protein standards; monomers to dimer
[3] = biological target: SOAR-F394H, purified protein (UniProt Q13586); assay: cross-linking; purified proteins dialysed against PBS, 0.5 mg/ml, disuccinimidyl suberate 0, 0.1 and 1 mM, 30 min, room temperature; SDS-PAGE, Coomassie blue; monomers to dimer
[4] = biological target: SOAR-F394H, purified protein (UniProt Q13586); assay: SEC; purified SOAR and SOAR-F394H, ~0.5 mg/ml, Superdex-200 16/60, 200 mM NaCl, 20 mM Mes-NaOH pH 6.5, 2.5 ml/min; calibrated with protein standards; monomers to dimer

Row | stoichiometry N [1] | stoichiometry N [2] | stoichiometry N [3] | stoichiometry N [4] | Substance
1 | 2 | 2 | – | – | SOAR, purified wild-type protein (from UniProt Q13586 344-442) (domain or fragment)
2 | – | – | 2 | 2 | SOAR-F394H, purified protein (from UniProt Q13586 344-442) (domain or fragment)
